In the nanobody polyreactivity screen of Harvey et al. (2022):

Assay: yeast display, Sf9 membrane polyspecificity reagent, FACS + sequencing; frameworks hold sequencing errors
Outline: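 Nanobodies from a synthetic yeast display library (Saccharomyces cerevisiae BJ5465), induced 36–48 hours with galactose, were stained 1 hour at 4 °C with 10% biotinylated, detergent-solubilized Sf9 membrane reagent, enriched on streptavidin microbeads, then FACS-sorted. Anti-HA (expression) and streptavidin (reagent binding) fluorescence set low and high (top ~1%) gates. Polyreactivity labels come from the gate of origin. Genes were colony-PCR amplified, MiSeq 2 × 250 sequenced and filtered by CDR length.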

| Sequence | polyreactivity (PSR sort gate) |
| --- | --- |
| QVQLVESGGGLVQAGGSLRLTCAASGRIFTTYAMGWYRQAPGKERELVAAISRSGGSTYYADSVKGRFTISRDNAKNTVYLQMNSMKPEDTAVYYCAAVPTSNSFRSSFYYWGQGTQVTVSS | high polyreactivity |
| QVQLVESGGGLVQAGGSLRLTCAASGRIFYQYAMGWYRQAPGKEMDLVASITTSGGNTYYADSVKGRFTISRDNAKNTVYLQMNSLKPEDTAVYYCAARFNWRQWLYEYWGQGTQVTVSS | low polyreactivity |
| QVQLVESGGGLVQAGGSLRLTCAASGRIFYYYAMAWYRQAPGKEMELVAAIRRGGFTYYADSVKGRFTISRDNAKNTVYLQMYSLKQEDTAVYYCAAGVSKPNGYYYLRGYERGYWGQGTQVTVSS | high polyreactivity |
| QVQLVESGGGLVQAGGSLRLTCAASGRILSHYAMVWYIQAPGKERELVATINSGGATYYADSVKGRFTISRDNAKYTVYFQMNSLKPEDTAVYYCAVDYAVSYAGWVLRYDYWGQGTQVTVSS | low polyreactivity |
| QVQLVESGGGLVQAGGSLRLTCAASGRNFQVYAMGWYRQAPGKERELVAGITRAGSTYYADSVKGRFTISRDNAKNTVYLQLNSLKPEDTAVYYCAASRWHGYNYWGQGTQVTVSS | high polyreactivity |
| QVQLVESGGGLVQAGGSLRLTCAASGRTFAINVMGWYIQAPGKERELVASIRGRGGRTNYADSVKGRFTISRDNAKNTVYLQMNRLKPEDTAVYYCAASQWWRYDYWGQGTQVTVSS | high polyreactivity |
| QVQLVESGGGLVQAGGSLRLTCAASGRTFAYNAMGWYRQAPGKERELVAAITSSGTSTYYADSVKGRFTISRDNAKNTVYLQINCLKPEDTAVYYCAGRQSQKYGLFYYWGQGTQVTVSS | high polyreactivity |
| QVQLVESGGGLVQAGGSLRLTCAASGRTFEQNAMGWNRPAPGKERELVASITSVGSTDYADSVKGRFTISRDNAKNTVYLQMNSLKPEDTAVYYCAKTLGSQNYDFDYWGQGTQVTVSS | low polyreactivity |
| QVQLVESGGGLVQAGGSLRLTCAASGRTFGINAMGWYRQAPGKERELVAAIDSIDGTTYYADSVKGHFTISRDNAKNTVYLPMNRLKPAATAVYYCAAEFISSYDYWGQGTQVTVSS | high polyreactivity |
| QVQLVESGGGLVQAGGSLRLTCAASGRTFRNYAMGWYRQAPGKEREMVAAISRSGGITYYADSVKGRFTISRDNAKNTVYLQMNSLKPEDTAVYYCAARHSYQGPGTYPMYYWGQGTQVTVTS | high polyreactivity |
| QVQLVESGGGLVQAGGSLRLTCAASGRTFSVNAMGWYRQAPGKEREFVAAIRTSGGSTSYADSVKVRFTISRDNAKYTVFLQMSSLKPEDTAVYYCAADYGGTSYVRGTVGRKYDYWGQGTQVTVSS | high polyreactivity |
| QVQLVESGGGLVQAGGSLRLTCAASGRTFSYNAMGWYRQAPGKERELVAAISYDGGRTYYADSVKGRFTISRDNAKNSVYLQMNSLKPEDTAVYFCAAYPYRCPHPWTIGDYWGQGTQVTVSS | low polyreactivity |
| QVQLVESGGGLVQAGGSLRLTCAASGRTFTTYAMGWYRQAPGKERELFAAISGSGGSTYYADSVKGRFTISRDNAKNTVYLQMNSLKPEGTAVYYCATAYYYHGGYYYPYDDYWGQGTQVTVSS | low polyreactivity |
| QVQLVESGGGLVQAGGSLRLTCAASGRTLRYNAMGWYRPAPVKERELVAAITSTGSTNYADSVKGRFTISRDNAKLTVYLHMNSLTAEDTAVYYCAKTSRYYWYGYDYWGQGTQVTVSS | high polyreactivity |
| QVQLVESGGGLVQAGGSLRLTCAASGSIFGNNAMGWYRQATGKERELVAVITDGGNTYYADSVKGRFTISRDNAKNTVYLQMNSLKPEDTAVYYCNAEWWGDSVYWGQGTQVTVSS | low polyreactivity |
| QVQLVESGGGLVQAGGSLRLTCAASGSIFGYAMGWYRQEPGKERELVAAISFSGVSTYYADSVKGRFTISRDNAKNTVYLLMNSLKPEDTAVYDCNAYSDGDEDYWGQGTQVTVSS | low polyreactivity |
| QVQLVESGGGLVQAGGSLRLTCAASGSIFSFYAMGWYRQAPGKERELVAAITQSDSSTYYADSVKGRFTISRDNAKNTVYLQMNSLKPVDTAVYYCAKDYYAYSDYDYWGQGTQVTVSS | low polyreactivity |
| QVQLVESGGGLVQAGGSLRLTCAASGSIFSHYAMGWYRQATGKERELVAAITYGGGSTYYADSVKGRFTISRDIAMNTVYLQMNSLKPDDTAVYYCAKEFKYWGYPYDYWGQGTQVTVSS | low polyreactivity |
| QVQLVESGGGLVQAGGSLRLTCAASGSIFSLNVMGRYRQAPGKERELVATIRGRGTSTYYADSVKGRFTISRYNAKINVYLHMNSLKPEDTAVYYWAARGHGAYGYWGQGTQVTVSS | low polyreactivity |
| QVQLVESGGGLVQAGGSLRLTCAASGSIFSYNVMGWYRQAPGKERELVAVITGSGGSTYYADSVKGRFTISRDNAKNTVYLQMYSLKPEDTAVYYCAATYSGWQWYETYYYWGQGTQVTVSS | low polyreactivity |
| QVQLVESGGGLVQAGGSLRLTCAASGSIFVNNAMGWYRQAPGKEMELVAAIRRSGGNTYYADSVKGRFTISRDNAKNTVYLQMNSLIPEDTAVYYCNVVRRADSIRAKSRDYWGQGTQVTVSS | high polyreactivity |
| QVQLVESGGGLVQAGGSLRLTCAASGSIFVQYAMGWYRQAPGKERELVATISSSGGSTYYADSVKGRCTISRDNAKNTVYLQMNSLKPEDTAVYYFAADWTLDRSYGYYADDYWGQGTQVTVSS | low polyreactivity |

| Sequence | polyreactivity (PSR sort gate) |
| --- | --- |
| QVQLVESGGGLVQAGGSLRLTCAASGSIFYWYAMGWYRQAPGKERELVAAISSSGSTNYADSVKGRFTISRDNAKNTVYLQMNSLKPEDTAVYYCGAYRTGYNGWGYGYWGQGTQVTVSS | high polyreactivity |
| QVQLVESGGGLVQAGGSLRLTCAASGSIIALYAMGWYRQAPGKERELVATISSCVSTYYADSVKGRFTISRDNAKNTVYLQLNSLKPEDTAVYYCAADKTVRSSNYDYWGQCTQVTVSS | low polyreactivity |
| QVQLVESGGGLVQAGGSLRLTCAASGSILIYNAMGWYRQAPGKQRELVADITNGGSTNYADSVKGRFTISRDNAKNTVYLQMHSLKPDDTAVYYCAKDAYYWWGPDYDYWGQGTQVTVSS | low polyreactivity |
| QVQLVESGGGLVQAGGSLRLTCAASGSISGLYTMGWYRQAPGKERELVAAIRWTTGTTYYADSVKGRFTISRDNAKNTVYLQMNSLKPEDTAVYYCNVVTWYYVFRPWEYDYWGQGTQVTVSS | low polyreactivity |
| QVQLVESGGGLVQAGGSLRLTCAASGSTFAGNAMGWYRQATGKERELVAAIDSSTGSTYYADSVKGRFTISRDNAKNTVYLQMNSLKPEDSAVYYCNKTSFLVKLDYWGQGTQVTVSS | low polyreactivity |
| QVQLVESGGGLVQAGGSLRLTCAASGSTFFPNDMGWYRQAPGKERELVDAISWRGGNTYADSVKGRFTISRDNAKNTVLLQMNSLKPEDTAVYYCAADVEWTSRGSYYRYYYWGQGTQVTVSS | low polyreactivity |
| QVQLVESGGGLVQAGGSLRLTCAASGSTFLFYARGWYRQAPGKERELVAAIRGRGGSTYYADSVKGRFTISRDNAKNTVYLQMNSLKPEDTAVYYCAALSRFPVNRYSDLDLYYWGEGTQVTVSS | high polyreactivity |
| QVQLVESGGGLVQAGGSLRLTCAASGSTFRYYVMGWYRQAPGKERELVAGISYRGGTTYYADSVKGRFTISRDNAKNTVYLQMNSLKPEDTAVYYCNAETAAAQASYDRLYVLLDYWGQGTQVTVSS | low polyreactivity |
| QVQLVESGGGLVQAGGSLRLTCAASGSTFYIYAMGWYRQAPGKERELVAAISQGGGSTSYADSVKGRFTISRDYAKNTVYLQMNSLKPEDTAVYYCAARRASRVRGKEGGYWGQGSQVTVSS | high polyreactivity |
| QVQLVESGGGLVQAGGSLRLTCAASGSTFYIYAMGWYRQAPGKERELVARISGSGGSTYYADSVKGRFTISRDNAKNTVYLQMNSLKPEDTAVYYCAADDIYKYYQYYAFPYYRYDYWGQGTQVTVSS | low polyreactivity |
| QVQLVESGGGLVQAGGSLRLTCAASGSTFYLNAMGWYRQATGKERELVAAITVSGGSTYYADSVKGRFTISRDNAKNTVYLQMNSLKPVDTAVYYCARELLSPTYQRWYYYWGQGTQVTVSS | low polyreactivity |
| QVQLVESGGGLVQAGGSLRLTCAASGSTFYTYAMGWYRQAPGNERELVAALSYGGGITYYADSVKGRFTISRDNEKNTVYIQMNSLKPEDTAVYYCAAVNGWQRYEFWGQGTQVTVSS | high polyreactivity |
| QVQLVESGGGLVQAGGSLRLTCAASGSTIVRNAMGWYRQAPGKEREFVAAIDWRGGSTSYADSVKGRFTISRDNAKNTVYLQMHSLKPADTAVYYCAAARRARELRSGQGSTYGNEYWGLGTQVTVSS | high polyreactivity |
| QVQLVESGGGLVQAGGSLRLTCAASGSTSYSNAMGWYRQAPGKERELVAAINRRGDSTYYADSVKGRFTISRDNAKNTVYLQMNSLKPEDTAVYYCNKVVRVYLGRFQYYSWGQGTQVTVSS | high polyreactivity |
| QVQLVESGGGLVQAGGSLRLTCAASGYIFGIYAMGWYRQAPGKERELVAAITTSSGSTYADSVKGRFTISRDNAKNTVYLQMNSLKPEDTAVYYCAADGYLYSYPGHRRASYDYWGQGTQVTVSS | low polyreactivity |
| QVQLVESGGGLVQAGGSLRLTCAASGYTFAGNAMGWYRQAPGKERELVAALSRSGGRTYYADSVKGRFTISRDNAKTTVYLQMNSLKPEDTAVYYCAASYRYTEYVSTWGFGYWGQGTQVTVSS | high polyreactivity |
| QVQLVESGGGLVQAGGSLRLTCAASGYTFRRYAMGWYRQAPGKERELVAAITRDDSTNYADSVKGRFTISRDNGKNTVYLQMNSLKPEDTAVYYCAAAVGLRRYSPLHLLYYYWGQGTQVTVSS | high polyreactivity |
| QVQLVESGGGLVQAGGSLRLTCAASRSIFYPNAMGWYRQAPGKETELVAAISSSGGTNYADSVKGRFTISRDNAQNTVYLQMNSLKPEDTAVYYCNARDKVRYRYSLMDYWGQGTQVTVSS | low polyreactivity |
| QVQLVESGGGLVQAGGSLRLTCAASVSTFSRYAMGWYRQAPGKERELVAAISWRGGRTYYADSVKGRFTISRDNAKNTVYLQMNSLKPEDTAVYYCNAVSSFTSPRYDYWGQGTQVTVSS | high polyreactivity |
| QVQLVESGGGLVQAGGSLRLTCAGSGRIFPFYAMGWYRHAPGKERELVAAISWNGGSTFYADSVKGRFTISRDNAKNTVYLQMNSLKPEDTAVYYCNADFRPAYTYDYWGQGTQVTVSS | low polyreactivity |
| QVQLVESGGGLVQAGGSLRLTCAPSGSTLLVYAMGWNRQAPGKERELVAAISGSGGRTSYADSVKGRFTISRDNAKNTVYLQMNSLKPEDTAVYYCAARRAGTYDYWGEGTQVTVSS | high polyreactivity |
